According to patent publication US20070135335:

Test system: Beacon (recombinant, expressed as GST-Beacon in E. coli, GST tag cleaved off with thrombin)

GST-CLK2 (recombinant human CLK2 fused to glutathione S-transferase, pGEX4T-1), sequence (chain, as listed by the source): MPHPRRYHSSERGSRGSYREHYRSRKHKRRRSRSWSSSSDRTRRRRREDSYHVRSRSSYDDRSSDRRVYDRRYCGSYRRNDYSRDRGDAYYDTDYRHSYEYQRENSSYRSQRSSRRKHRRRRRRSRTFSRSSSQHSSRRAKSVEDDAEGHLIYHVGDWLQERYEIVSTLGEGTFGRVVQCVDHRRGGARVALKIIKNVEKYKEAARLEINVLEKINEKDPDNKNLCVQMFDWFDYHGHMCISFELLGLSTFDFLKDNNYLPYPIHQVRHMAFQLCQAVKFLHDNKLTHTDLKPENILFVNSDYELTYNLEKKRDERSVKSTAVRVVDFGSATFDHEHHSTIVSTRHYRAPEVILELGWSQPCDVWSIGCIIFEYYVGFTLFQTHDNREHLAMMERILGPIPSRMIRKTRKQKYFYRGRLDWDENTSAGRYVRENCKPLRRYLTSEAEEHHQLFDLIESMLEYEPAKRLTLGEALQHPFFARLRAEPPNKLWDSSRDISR
GST-CLK4 (recombinant human CLK4 fused to glutathione S-transferase, pGEX4T-1), sequence (chain, as listed by the source): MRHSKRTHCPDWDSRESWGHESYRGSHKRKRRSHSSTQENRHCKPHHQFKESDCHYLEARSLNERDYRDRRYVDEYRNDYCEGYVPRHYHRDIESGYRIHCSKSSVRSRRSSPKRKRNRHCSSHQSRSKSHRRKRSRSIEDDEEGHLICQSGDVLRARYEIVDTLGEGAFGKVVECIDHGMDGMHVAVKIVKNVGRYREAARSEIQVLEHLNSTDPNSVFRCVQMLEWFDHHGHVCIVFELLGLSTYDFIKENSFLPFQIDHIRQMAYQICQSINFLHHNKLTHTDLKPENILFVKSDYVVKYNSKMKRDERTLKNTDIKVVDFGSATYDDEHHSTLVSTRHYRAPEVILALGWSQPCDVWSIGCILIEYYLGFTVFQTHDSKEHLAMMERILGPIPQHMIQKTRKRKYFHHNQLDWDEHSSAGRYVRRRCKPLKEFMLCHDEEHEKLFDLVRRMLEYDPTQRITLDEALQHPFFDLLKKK
GST-CLK1 (recombinant human CLK1 fused to glutathione S-transferase, pGEX4T-1), sequence (chain, as listed by the source): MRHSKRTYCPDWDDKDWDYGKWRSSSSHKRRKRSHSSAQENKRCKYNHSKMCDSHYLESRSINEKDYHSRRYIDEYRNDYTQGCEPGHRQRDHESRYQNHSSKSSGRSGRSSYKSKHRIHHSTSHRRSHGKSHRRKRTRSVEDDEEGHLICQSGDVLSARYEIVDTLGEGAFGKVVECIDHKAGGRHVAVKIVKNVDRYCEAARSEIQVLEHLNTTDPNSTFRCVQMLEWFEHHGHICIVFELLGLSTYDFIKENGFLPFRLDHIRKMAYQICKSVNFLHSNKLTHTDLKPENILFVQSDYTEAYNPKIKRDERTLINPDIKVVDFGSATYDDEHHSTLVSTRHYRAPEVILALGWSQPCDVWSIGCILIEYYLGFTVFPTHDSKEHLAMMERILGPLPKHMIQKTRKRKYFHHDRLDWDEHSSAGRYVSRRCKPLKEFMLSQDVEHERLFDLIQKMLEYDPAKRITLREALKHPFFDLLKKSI

Substance	phosphorylation of Beacon in kinase assay with [gamma-32P]-ATP
GST-CLK1 (recombinant human CLK1 fused to glutathione S-transferase, pGEX4T-1)	Beacon was not phosphorylated by any of the CLKs
GST-CLK2 (recombinant human CLK2 fused to glutathione S-transferase, pGEX4T-1)	Beacon was not phosphorylated by any of the CLKs
GST-CLK4 (recombinant human CLK4 fused to glutathione S-transferase, pGEX4T-1)	Beacon was not phosphorylated by any of the CLKs
